Laboratory results taken from patent US20200199241A1 (Chugai, published 2020).
Changes are numbered by the printed parent chain. Names may count otherwise.

T1: FcγRIIb (human, UniProt P31994 43-217, limits assumed)
T1 construct: also called FcgRIIb; FcγIIB
T1 sequence: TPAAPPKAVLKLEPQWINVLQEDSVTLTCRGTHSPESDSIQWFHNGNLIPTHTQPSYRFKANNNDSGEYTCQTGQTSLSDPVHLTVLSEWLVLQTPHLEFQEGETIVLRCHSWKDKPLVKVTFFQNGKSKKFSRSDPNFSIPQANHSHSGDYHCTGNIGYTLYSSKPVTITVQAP

T2: FcγRIIa type H (human, UniProt P12318 36-217)
T2 construct: also called FcγRIIaH; FcγRIIH
T2 sequence: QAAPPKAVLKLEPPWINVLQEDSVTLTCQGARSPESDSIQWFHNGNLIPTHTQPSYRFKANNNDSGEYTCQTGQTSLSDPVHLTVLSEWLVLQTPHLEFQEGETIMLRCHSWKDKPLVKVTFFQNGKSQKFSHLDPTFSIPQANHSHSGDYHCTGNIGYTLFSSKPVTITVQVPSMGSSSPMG

T3: human FcγRIIb (human, UniProt P31994 43-217, limits assumed)
T3 construct: also called FcgRIIb; hFcgRIIb
T3 sequence: T1 sequence

T4: human FcγRIIa(R) (human, UniProt P12318 36-217)
T4 construct: also called FcgRIIaR; hFcgRIIa(R)
T4 chain: T2 sequence with H133R

T5: human FcγRIIa(H) (human, UniProt P12318 36-217)
T5 construct: also called FcgRIIaH; hFcgRIIa(H)
T5 sequence: T2 sequence

B1: IL6R-BP212/IL6R-L (antibody, human IgG1)
heavy: QVQLQESGPGLVKPSETLSLTCAVSGHSISHDHAWSWVRQPPGEGLEWIGFISYSGITNYNPSLQGRVTISRDNSKNTLYLQMNSLRAEDTAVYYCARSLARTTAMDYWGEGTLVTVSSASTKGPSVFPLAPSSKSTSGGTAALGCLVKDYFPEPVTVSWNSGALTSGVHTFPAVLQSSGLYSLSSVVTVPSSSLGTQTYICNVNHKPSNTKVDKKVEPKSCDKTHTCPPCPAPDLLGGDSVFLFPPKPKDTLMISRTPEVTCVVVDVSDEDGEVKFNWYVDGVEVHNAKTKPREEQDNSTYRVVSVLTVLHQDWLNGKEYKCKVSNKALPRPIEKTISKAKGQPREPQVYTLPPSRDELTKNQVSLTCLVKGFYPSDIAVEWESNGQPENNYKTTPPVLDSDGSFFLYSKLTVDKSRWQQGNVFSCSVMHEALHNHYTQESLSLSP
light: DIQMTQSPSSLSASVGDRVTITCRASQDISSYLNWYQQKPGKAPKLLIYYTSRLHSGVPSRFSGSGSGTDFTFTISSLQPEDIATYYCQQGNTLPYTFGQGTKVEIK
notes: IgG1; Fc variant of IL6R-B3; copies: 2 + 2
B2: IL6R-BP188/IL6R-L (antibody, human IgG1)
heavy: B1 heavy with G239D, D298Y, R332K
light: B1 light
notes: as for B1
B3: IL6R-BP178/IL6R-L (antibody, human IgG1)
heavy: B1 heavy with G239D, D270H, D298Y, R332K
light: B1 light
notes: as for B1
B4: IL6R-BP176/IL6R-L (antibody, human IgG1)
heavy: B1 heavy with D270H, G273P, D298Y, K328D, R332K
light: B1 light
notes: as for B1
B5: IL6R-BP201/IL6R-L (antibody, human IgG1)
heavy: B1 heavy with G239D, D270H, D298Y
light: B1 light
notes: as for B1
B6: IL6R-BP193/IL6R-L (antibody, human IgG1)
heavy: B1 heavy with D298Y, R332K
light: B1 light
notes: as for B1
B7: IL6R-BP205/IL6R-L (antibody, human IgG1)
heavy: B1 heavy with D270H
light: B1 light
notes: as for B1
B8: IL6R-BP202/IL6R-L (antibody, human IgG1)
heavy: B1 heavy with D235E, G239D, D270H, D298Y, K328A
light: B1 light
notes: as for B1
B9: IL6R-BP204/IL6R-L (antibody, human IgG1)
heavy: B1 heavy with D270H, D298Y, K328A
light: B1 light
notes: as for B1
B10: IL6R-BP210/IL6R-L (antibody, human IgG1)
heavy: B1 heavy with D235E, G239D, D298Y
light: B1 light
notes: as for B1
B11: IL6R-BP146/IL6R-L (antibody, human IgG1)
heavy: B1 heavy with D235E, L236Y, G239D, D270H, G273P, D298Y, K328A, R332A
light: B1 light
notes: as for B1
B12: IL6R-BP152/IL6R-L (antibody, human IgG1)
heavy: B1 heavy with L236Y, G239D, D270H, G273P, K328A
light: B1 light
notes: as for B1
B13: IL6R-BP151/IL6R-L (antibody, human IgG1)
heavy: B1 heavy with L236Y, G239D, D270H, G273P, D298Y, K328A
light: B1 light
notes: as for B1
B14: IL6R-BP181/IL6R-L (antibody, human IgG1)
heavy: B1 heavy with D270H, D298Y, K328A, R332K
light: B1 light
notes: as for B1
B15: IL6R-BP195/IL6R-L (antibody, human IgG1)
heavy: B1 heavy with L236Y, G239D, K328A, R332K
light: B1 light
notes: as for B1
B16: IL6R-BP190/IL6R-L (antibody, human IgG1)
heavy: B1 heavy with D235E, G239D, D298Y, R332K
light: B1 light
notes: as for B1
B17: IL6R-BP131/IL6R-L (antibody, human IgG1)
heavy: B1 heavy with G239D, D270H, G273P, D298Y, R332K
light: B1 light
notes: as for B1
B18: IL6R-BP191/IL6R-L (antibody, human IgG1)
heavy: B1 heavy with D298Y, K328A, R332K
light: B1 light
notes: as for B1
B19: IL6R-BP130/IL6R-L (antibody, human IgG1)
heavy: B1 heavy with D270H, G273P, D298Y, V325M, R332K
light: B1 light
notes: as for B1
B20: GpH7-B3 S324P/GpL16-k0 (antibody, human IgG1)
heavy: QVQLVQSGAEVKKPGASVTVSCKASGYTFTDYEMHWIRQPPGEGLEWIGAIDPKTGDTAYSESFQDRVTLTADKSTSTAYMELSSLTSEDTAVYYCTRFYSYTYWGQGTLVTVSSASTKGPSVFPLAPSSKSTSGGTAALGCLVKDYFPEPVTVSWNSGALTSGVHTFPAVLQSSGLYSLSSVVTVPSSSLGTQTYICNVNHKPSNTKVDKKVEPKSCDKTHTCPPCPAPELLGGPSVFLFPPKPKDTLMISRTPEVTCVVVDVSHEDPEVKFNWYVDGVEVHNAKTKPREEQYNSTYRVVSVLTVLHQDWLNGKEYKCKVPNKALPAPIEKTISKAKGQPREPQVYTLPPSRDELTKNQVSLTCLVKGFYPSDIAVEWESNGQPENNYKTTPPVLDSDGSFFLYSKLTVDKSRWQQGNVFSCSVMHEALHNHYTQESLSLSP
light: DIVMTQSPLSLPVTPGEPASISCQASESLVHSNRNTYLHWYLQKPGQSPQLLIYKVSNRFSGVPDRFSGSGSGTDFTLKISRVEAEDVGVYYCSQNTHVPPTFGQGTKVEIE
notes: B3 variant; copies: 2 + 2
B21: GpH7-B3 Y296P/GpL16-k0 (antibody, human IgG1)
heavy: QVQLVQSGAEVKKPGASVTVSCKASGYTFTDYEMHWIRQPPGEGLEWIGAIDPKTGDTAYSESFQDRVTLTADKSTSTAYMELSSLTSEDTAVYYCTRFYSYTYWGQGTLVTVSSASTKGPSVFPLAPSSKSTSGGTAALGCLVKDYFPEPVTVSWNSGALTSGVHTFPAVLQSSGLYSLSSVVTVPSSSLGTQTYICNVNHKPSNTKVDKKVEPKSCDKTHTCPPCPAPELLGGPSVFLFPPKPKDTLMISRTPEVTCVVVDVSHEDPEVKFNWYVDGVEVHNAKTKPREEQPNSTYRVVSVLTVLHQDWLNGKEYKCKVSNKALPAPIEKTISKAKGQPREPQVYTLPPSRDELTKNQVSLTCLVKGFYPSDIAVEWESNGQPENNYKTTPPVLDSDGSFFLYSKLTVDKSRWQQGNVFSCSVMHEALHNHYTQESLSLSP
light: B20 light
notes: B3 variant; copies: 2 + 2
B22: GpH7-B3 Y300R/GpL16-k0 (antibody, human IgG1)
heavy: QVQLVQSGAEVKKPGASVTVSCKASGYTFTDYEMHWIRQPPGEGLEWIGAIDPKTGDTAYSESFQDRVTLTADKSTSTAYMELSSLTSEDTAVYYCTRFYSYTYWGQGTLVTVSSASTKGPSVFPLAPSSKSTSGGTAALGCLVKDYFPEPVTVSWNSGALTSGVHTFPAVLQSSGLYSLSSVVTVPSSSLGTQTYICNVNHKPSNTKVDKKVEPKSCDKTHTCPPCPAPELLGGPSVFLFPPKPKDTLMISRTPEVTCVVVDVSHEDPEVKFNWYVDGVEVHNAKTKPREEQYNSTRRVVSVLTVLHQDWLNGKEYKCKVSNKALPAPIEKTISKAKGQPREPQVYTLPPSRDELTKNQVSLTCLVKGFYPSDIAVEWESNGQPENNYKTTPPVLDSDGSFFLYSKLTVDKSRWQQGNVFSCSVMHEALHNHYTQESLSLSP
light: B20 light
notes: B3 variant; copies: 2 + 2
B23: GpH7-B3 Y300K/GpL16-k0 (antibody, human IgG1)
heavy: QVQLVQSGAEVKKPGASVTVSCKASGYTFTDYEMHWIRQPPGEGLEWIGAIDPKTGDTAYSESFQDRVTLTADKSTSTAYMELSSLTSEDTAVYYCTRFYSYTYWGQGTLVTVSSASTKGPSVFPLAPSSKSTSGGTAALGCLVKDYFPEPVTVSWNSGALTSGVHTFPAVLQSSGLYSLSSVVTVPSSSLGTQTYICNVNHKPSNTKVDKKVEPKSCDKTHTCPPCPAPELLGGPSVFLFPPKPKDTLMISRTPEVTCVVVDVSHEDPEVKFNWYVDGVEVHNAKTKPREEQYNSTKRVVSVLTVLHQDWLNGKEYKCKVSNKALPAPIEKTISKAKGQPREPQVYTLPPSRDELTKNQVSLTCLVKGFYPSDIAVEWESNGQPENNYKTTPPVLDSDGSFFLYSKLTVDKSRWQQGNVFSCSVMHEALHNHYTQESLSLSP
light: B20 light
notes: B3 variant; copies: 2 + 2
B24: GpH7-B3 Y296K/GpL16-k0 (antibody, human IgG1)
heavy: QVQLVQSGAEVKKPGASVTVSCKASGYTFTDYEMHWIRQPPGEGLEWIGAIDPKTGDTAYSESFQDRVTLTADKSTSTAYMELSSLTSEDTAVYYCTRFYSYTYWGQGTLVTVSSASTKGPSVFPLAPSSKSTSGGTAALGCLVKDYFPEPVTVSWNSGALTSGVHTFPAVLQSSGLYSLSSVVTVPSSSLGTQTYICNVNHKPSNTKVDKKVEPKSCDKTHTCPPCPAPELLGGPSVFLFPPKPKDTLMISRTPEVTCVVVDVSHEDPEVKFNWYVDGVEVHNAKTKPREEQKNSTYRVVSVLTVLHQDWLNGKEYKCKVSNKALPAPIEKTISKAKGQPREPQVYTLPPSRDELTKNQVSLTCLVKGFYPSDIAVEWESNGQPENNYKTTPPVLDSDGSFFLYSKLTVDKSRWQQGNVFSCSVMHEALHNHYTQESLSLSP
light: B20 light
notes: B3 variant; copies: 2 + 2
B25: GpH7-B3 Y300P/GpL16-k0 (antibody, human IgG1)
heavy: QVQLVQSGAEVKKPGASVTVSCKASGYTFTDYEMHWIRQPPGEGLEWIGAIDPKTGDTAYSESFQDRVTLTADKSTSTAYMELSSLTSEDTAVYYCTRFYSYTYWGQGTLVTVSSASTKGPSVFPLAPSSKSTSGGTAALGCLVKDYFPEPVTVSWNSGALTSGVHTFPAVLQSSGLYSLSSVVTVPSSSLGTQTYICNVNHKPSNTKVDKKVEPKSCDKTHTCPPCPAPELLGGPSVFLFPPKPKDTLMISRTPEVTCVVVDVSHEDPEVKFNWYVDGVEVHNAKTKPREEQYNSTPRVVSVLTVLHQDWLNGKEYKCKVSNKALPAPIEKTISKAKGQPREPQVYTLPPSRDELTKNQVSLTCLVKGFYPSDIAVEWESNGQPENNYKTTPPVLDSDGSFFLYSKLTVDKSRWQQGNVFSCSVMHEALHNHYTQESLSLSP
light: B20 light
notes: B3 variant; copies: 2 + 2
B26: GpH7-B3 Y296R/GpL16-k0 (antibody, human IgG1)
heavy: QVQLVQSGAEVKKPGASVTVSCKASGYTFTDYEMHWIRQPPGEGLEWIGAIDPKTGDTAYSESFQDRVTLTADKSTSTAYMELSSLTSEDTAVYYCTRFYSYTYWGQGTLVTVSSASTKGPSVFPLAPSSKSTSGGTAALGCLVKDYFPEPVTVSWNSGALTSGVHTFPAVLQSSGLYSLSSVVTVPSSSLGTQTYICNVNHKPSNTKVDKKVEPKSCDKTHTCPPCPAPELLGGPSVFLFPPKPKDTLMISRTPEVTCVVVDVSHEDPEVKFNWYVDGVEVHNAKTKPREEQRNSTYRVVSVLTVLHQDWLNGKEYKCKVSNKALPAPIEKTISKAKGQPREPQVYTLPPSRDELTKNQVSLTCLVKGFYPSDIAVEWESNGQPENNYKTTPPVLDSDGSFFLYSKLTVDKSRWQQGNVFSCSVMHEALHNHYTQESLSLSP
light: B20 light
notes: B3 variant; copies: 2 + 2
B27: GpH7-B3 Y296G/GpL16-k0 (antibody, human IgG1)
heavy: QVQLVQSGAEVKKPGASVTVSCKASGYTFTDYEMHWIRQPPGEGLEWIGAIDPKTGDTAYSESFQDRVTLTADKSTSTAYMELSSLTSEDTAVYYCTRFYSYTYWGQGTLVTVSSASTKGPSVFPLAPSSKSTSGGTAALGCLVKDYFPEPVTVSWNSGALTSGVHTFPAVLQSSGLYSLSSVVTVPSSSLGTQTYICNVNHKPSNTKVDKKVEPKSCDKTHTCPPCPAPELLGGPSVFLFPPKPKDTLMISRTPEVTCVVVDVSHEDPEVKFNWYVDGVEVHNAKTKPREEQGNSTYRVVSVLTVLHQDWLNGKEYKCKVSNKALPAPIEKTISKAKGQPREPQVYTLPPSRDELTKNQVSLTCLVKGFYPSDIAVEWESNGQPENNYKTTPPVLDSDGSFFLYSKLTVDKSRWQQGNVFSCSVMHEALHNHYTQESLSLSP
light: B20 light
notes: B3 variant; copies: 2 + 2

The binders below were run against T1, FcγRIIb (assay: SPR (Biacore), bound amount, IL6R-BF648/IL6R-L = 100).
Experimental: (§1) According to the following method, relative binding activities were calculated for the results of analyzing interactions with the respective FcγRs.

relative binding activity | Binder
173 % of control | B1
179 % of control | B2
179 % of control | B3
147 % of control | B4
186 % of control | B5
173 % of control | B6
167 % of control | B7
185 % of control | B8
165 % of control | B9
187 % of control | B10
156 % of control | B11
178 % of control | B12

Each binder was assayed against T6, FcγRIIIa type V (human, UniProt P08637 17-208, limits assumed) in the same assay as above.
T6 construct: also called FcγRIIIaV; FcgRIIIaV
T6 sequence (P08637 other isoform, or with tags, fused parts or gaps limits assumed): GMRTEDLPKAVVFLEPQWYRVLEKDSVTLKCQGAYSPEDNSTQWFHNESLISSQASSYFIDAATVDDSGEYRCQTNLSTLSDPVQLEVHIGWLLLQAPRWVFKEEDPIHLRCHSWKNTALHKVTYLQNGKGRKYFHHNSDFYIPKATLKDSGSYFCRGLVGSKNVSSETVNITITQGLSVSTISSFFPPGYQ
Experimental: as §1

relative binding activity | Binder
221 % of control | B13
122 % of control | B14
221 % of control | B15
155 % of control | B16
118 % of control | B17
142 % of control | B18

What follows are binders tested against T7, FcγRIa (human, UniProt P12314 16-292, limits assumed) in the same assay as above.
T7 construct: also called FcgRIa; CD64
T7 sequence (P12314 16-292 limits assumed): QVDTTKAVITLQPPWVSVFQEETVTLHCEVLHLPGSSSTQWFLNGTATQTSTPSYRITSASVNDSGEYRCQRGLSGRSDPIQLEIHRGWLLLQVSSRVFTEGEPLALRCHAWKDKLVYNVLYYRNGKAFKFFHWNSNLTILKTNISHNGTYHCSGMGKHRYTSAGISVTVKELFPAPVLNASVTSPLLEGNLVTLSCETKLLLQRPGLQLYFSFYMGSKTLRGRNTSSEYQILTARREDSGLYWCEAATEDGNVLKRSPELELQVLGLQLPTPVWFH
Experimental: as §1

relative binding activity | Binder
104 % of control | B19
39 % of control | B13
117 % of control | B1
74 % of control | B2
51 % of control | B3
102 % of control | B4
57 % of control | B5
66 % of control | B15
113 % of control | B6
97 % of control | B7
43 % of control | B8
57 % of control | B10
50 % of control | B16
33 % of control | B17
125 % of control | B18
34 % of control | B12

Each binder was assayed against T2, FcγRIIa type H in the same assay as above.
Experimental: as §1

relative binding activity | Binder
224 % of control | B19
621 % of control | B13
135 % of control | B1
259 % of control | B3
150 % of control | B14
128 % of control | B4
359 % of control | B5
344 % of control | B15
154 % of control | B6
108 % of control | B7
285 % of control | B8
137 % of control | B9
279 % of control | B10
224 % of control | B16
253 % of control | B17
203 % of control | B11
145 % of control | B18
548 % of control | B12

The binders below were run against T3, human FcγRIIb (assay: SPR, captured antibody;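 also: antibody captured on a sensor chip, Fcγ receptor flowed over at 25 °C, receptor binding normalized to the captured antibody amount and expressed relative to the reference antibody ×100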).

relative binding activity | Binder
36 % of GpH7-B3/GpL16-k0 | B20
7 % of GpH7-B3/GpL16-k0 | B21
25 % of GpH7-B3/GpL16-k0 | B22
45 % of GpH7-B3/GpL16-k0 | B23
45 % of GpH7-B3/GpL16-k0 | B24
-1 % of GpH7-B3/GpL16-k0 | B25
52 % of GpH7-B3/GpL16-k0 | B26
58 % of GpH7-B3/GpL16-k0 | B27

Molecular target: T4, human FcγRIIa(R)
Assay: SPR, captured antibody;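 also: antibody captured on a sensor chip, Fcγ receptor flowed over at 25 °C, receptor binding normalized to the captured antibody amount and expressed relative to the reference antibody ×100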

relative binding activity | Binder
34 % of GpH7-B3/GpL16-k0 | B20
10 % of GpH7-B3/GpL16-k0 | B21
38 % of GpH7-B3/GpL16-k0 | B22
59 % of GpH7-B3/GpL16-k0 | B23
70 % of GpH7-B3/GpL16-k0 | B24
-1 % of GpH7-B3/GpL16-k0 | B25
77 % of GpH7-B3/GpL16-k0 | B26
77 % of GpH7-B3/GpL16-k0 | B27

What follows are binders tested against T8, human FcγRIa (human, UniProt P12314 16-292, limits assumed) (assay: SPR, captured antibody;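 also: antibody captured on a sensor chip, Fcγ receptor flowed over at 25 °C, receptor binding normalized to the captured antibody amount and expressed relative to the reference antibody ×100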).
T8 construct: also called FcgRIa; hFcgRIa
T8 sequence (P12314 16-292 limits assumed): as above

relative binding activity | Binder
91 % of GpH7-B3/GpL16-k0 | B20
45 % of GpH7-B3/GpL16-k0 | B21
91 % of GpH7-B3/GpL16-k0 | B22
95 % of GpH7-B3/GpL16-k0 | B23
99 % of GpH7-B3/GpL16-k0 | B24
9 % of GpH7-B3/GpL16-k0 | B25
100 % of GpH7-B3/GpL16-k0 | B26
100 % of GpH7-B3/GpL16-k0 | B27

Each binder was assayed against T5, human FcγRIIa(H) (assay: SPR, captured antibody;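 also: antibody captured on a sensor chip, Fcγ receptor flowed over at 25 °C, receptor binding normalized to the captured antibody amount and expressed relative to the reference antibody ×100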).

relative binding activity | Binder
14 % of GpH7-B3/GpL16-k0 | B20
8 % of GpH7-B3/GpL16-k0 | B21
34 % of GpH7-B3/GpL16-k0 | B22
56 % of GpH7-B3/GpL16-k0 | B23
66 % of GpH7-B3/GpL16-k0 | B24
0 % of GpH7-B3/GpL16-k0 | B25
74 % of GpH7-B3/GpL16-k0 | B26
83 % of GpH7-B3/GpL16-k0 | B27
